Experimental data reported in patent US20160207996A1 (ARGEN X N V, published 2016).

Assays:
[1] = molecular target: T1, Nt-GCGR-hFc (human, UniProt P47871 26-136); assay: scFv binding ELISA, periplasmic extract on coated Nt-GCGR
T1 construct: domain: N-terminal domain; also called Nt-GCGR-Fc; recombinant N-terminal domain of GCGR; not shown: hFc

[2] = molecular target: T2, hNav1.7-loopA3-llama Fc fusion (human); assay: ELISA, coated hNav1.7-loopA3-llama Fc, mAb titrated
T2 construct: also called hNav1.7-loopA3-llFc; loopA3-llamaFc chimera
T2 chain: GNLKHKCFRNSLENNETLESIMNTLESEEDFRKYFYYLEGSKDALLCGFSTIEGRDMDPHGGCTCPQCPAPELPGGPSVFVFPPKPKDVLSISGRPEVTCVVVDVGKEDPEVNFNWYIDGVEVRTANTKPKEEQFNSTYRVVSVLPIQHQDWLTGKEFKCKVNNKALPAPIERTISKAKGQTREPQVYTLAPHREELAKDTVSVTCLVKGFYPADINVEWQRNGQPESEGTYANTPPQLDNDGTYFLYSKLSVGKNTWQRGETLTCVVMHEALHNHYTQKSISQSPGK
Procedure: mAbs originating from the loopA3-llama Fc immunization were assayed for their affinity for hNav1.7-loopA3. Therefore, a Maxisorp plate was coated with 10 ng/well of loopA3-llamaFc chimera and incubated overnight at 4° C. The next day, the plate was blocked with PBS+1% casein for 2 hours at RT. Subsequently a concentration gradient of antibodies was applied (range 0.25 pM-66 nM) for another hour. Antibody binding to loopA3 was detected using a HRP-conjugated anti-human Fc antibody (Abcam, Ab7499) (incubation 1 hour at RT, dilution 1/5000 in PBS+0.1% casein), followed by TMB addition and OD620 nm measurement. EC50 values were determined using GraphPad Prism software. For comparison purposes a known hNav1.7-loopA3 binding monoclonal antibody, UCB_932 (US2011/0135662), was tested.

[3] = molecular target: T2, hNav1.7-loopA3-llama Fc fusion; assay: Biacore SPR, antigen on CM5 chip, mAb in flow
Procedure: (§1) In a further experiment, affinity of the loopA3-binding mAbs was determined using Biacore Surface Plasmon Resonance (SPR) analysis.

[4] = molecular target: T3, GST-tagged hNav1.7-loopA3 (human, UniProt Q15858 269-339); assay: Biacore SPR, antigen on CM5 chip, mAb in flow
T3 construct: monomeric GST-tagged peptide; also called hNav1.7-loopA3-GST; Nav1.7-loopA3-GST; not shown: GST tag
T3 sequence (Q15858 269-339 limits assumed): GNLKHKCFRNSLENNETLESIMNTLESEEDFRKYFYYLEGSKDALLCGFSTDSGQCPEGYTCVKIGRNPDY
Procedure: as §1

T1 sequence (P47871 26-136): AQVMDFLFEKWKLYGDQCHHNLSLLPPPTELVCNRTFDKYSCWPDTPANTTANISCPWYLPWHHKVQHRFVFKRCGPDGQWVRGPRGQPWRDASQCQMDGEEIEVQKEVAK

Row | Binder | ScFv binding ELISA signal [1] | EC50 [2] [pM] | Kd [3] [pM] | koff [3] [s⁻¹] | Kd [4] [pM] | koff [4] [s⁻¹]
1 | scFv D1 (scFv) QVQLQESGGGLVQPGGSLRLSCAASGFTFSWYAMSWVRQGPGKGLEWVSGINGGGGSTSYEDSVKGRFTISRDNAKNTLYLEMNSLKPEDTAVYYCARYSDGYSGSYTYTDMDYWGKGTLVSVSSQAVVTQEPSLSVSPGGTVTLTCGLNSGSVTNGNYPGWYQQTPGQAPRALIYSTNSRHSGVPGRYSGSISGNKAALTITGAEPEDEADYYCALWQAAGTVVFGGGTHLTVLG | 0.1 |  |  |  |  | 
2 | 4H6 (antibody, human IgG1, V domains shown) VH: QVQLQESGPGLVKPSQTLSLTCTVSGGSITNYGWSWIRQPPGKGLEWMGVIAYDGSTYYSPSLKSRTSISRDTSKNQFSLQLSSVTPEDTAVYYCASAMVTTSSPWVKTFGAWGQGTQVTVSS VL: QAGLTQPPSVSGSPGKTVTISCAGTSSDVGYGNYVSWYQQLPGMAPKLLLYSVNKRASGIADRFSGSKSGNTASLTISGLQSEDEADYYCGCYDSSLSTPVFGGGTKLTVLG |  | 67 | 120 | 4.48e-05 | 50.5 | 1.54e-05
3 | scFv D3 (scFv) QVQVQESGGGLVQPGGSLRLSCATSGFTFSNYYMSWVRQAPGKGPEWVSSIYSDLSTTYYADSVKGRFTISRDRAKNTLYLQMNSLKSEDTAVYYCARLSTVAGMDYWGKGTLVTVSSSYELTQSPSVSVALRQTAKITCGGNDIESKSAQWYQQKPDQAPVLVIYADDRRPSEIPERFSGSNSGDTATLTISGAQAEDEADYYCQVWDSSANAAVFGGGTHLTVLG | 0.987 |  |  |  |  | 
4 | 4F7 (antibody, human IgG1, V domains shown) VH: QVQLQESGPGLVKPSQTLSLTCTVSGGSITTSFYAWSWIRQPPGKGLEWMGVIAYDGRTFYSPSLKSRTHISRDTSKNQFSLQLSSVTPEDTAVYYCARGGVVAWSYDYWGQGTQVTVSS VL: SYELTQSPSVSVALRQTAKITCGGNDIGSKSTQWYQQKAGQAPVLVIYADSRRPSGIPERFSGSNSGNTATLTISGAQAEDEADYYCQVWDSRADAAVFGGGTHLTVLG |  | 57 | 84 | 2.68e-05 | 82.5 | 1.84e-05
5 | scFv D2 (scFv) ELQLVESGGGLVQPGGSLRLSCATSGFTFSNYYMSWVRQAPGKGPEWVSSIYSDLSTTYYADSVKGRFTISRDRAKNTLYLQMNSLKSEDTAVYYCARLSTVAGVDYWGKGTLVTVSSSYELTQSPSVSVALRQAAKITCGGNDIGSKSAQWYQQKPGQAPVLVIYADSRRPSGIPERFSGSNSGNTATLTISGAQAEDEADYYCQVWDSSANAAVFGGGTHLTVLG | 0.52 |  |  |  |  | 
6 | 3F11 (antibody, human IgG1, V domains shown) VH: QVQLVESGGGLVQPGGSLRLSCAASGFTFSSYWMYWVRQAPGKGLEWVSAINTGGGSTYYADSVKGRFTISRDNAKNTLYLQMNSLKPEDTALYYCARGPGYSGSYIEGWAYWGQGTQVTVSS VL: DIVMTQSPTSVTASVGEKVTINCKSSQSVVSGSNQKSYLNWYQQRPGQSPRLLIYHASTQESGIPDRFSGSGSTTDFTLTISSVQPEDAAVYYCQQAYNNPYSFGSGTRLEIK |  | 72 | 25.3 | 1.56e-05 | 37.4 | 1.77e-05
7 | 2F12 (antibody, human IgG1, V domains shown) VH: QVQLVESGGGLVQPGGSLRLSCAASGFTFSSYWMYWVRQAPGKGLEWVSAINTGGGSTYYADSVKGRFTISRDNAKNTLYLQMNSLKPEDTALYYCARGPGYSGKYIEGWAYWGQGTQVTVSS VL: DIVMTQSPRSVTASVGEKVFINCKSSQSVVSESNQRSYLNWYQQRPGQSPRLLIYYASTQESGLPDRFSGSGSTTDFTLTISSVQPEDAAVYYCQQAYSAPYSFGSGTRLEIK |  | 57 | 24.1 | 1.92e-05 | 16.9 | 1.08e-05
8 | 3E1 (antibody, human IgG1, V domains shown) VH: EVQVQESGGGLVQPGGSLRLSCAASGFTFSSYWMYWVRQAPGKGLEWVSAINTGGGSTYYADSVKGRFTISRDNAKNTLYLQMNSLKPEDTALYYCARGPGYSGKYIEGWAYWGQGTQVTVSS VL: DIVMTQSPSSVTASVGEKVTINCKSSQSVVSGSKQKSYLNWYQQRPGQSPRLLIYYASTQESGIPDRFSGSGSTTDFTLTISSVQPEDAAVYYCQQAYSAPYSFGSGTRLEIK |  | 63 | 200 | 0.00041 | 216 | 0.000356
9 | 6H8 (antibody, human IgG1, V domains shown) VH: EVQLVESGGGLVQPGGTLRLSCAASGFTFSNYWMHWVRQAPGKGLEWVSVIDRGGGGTRYADSVKGRFTISRDNAKNTLYLRMNSLKPEDTALYYCTRDRNGEYDYWGRGTQVTVSS VL: DIQMTQSPSSVTASAGEKVTINCKSSQSVLYSSNQKNYLAWYQQRLGQSPRLLIYWASTRESGVPDRFSGSGSTTDFTLTINNFQPEDAAVYYCQQGYSAPLTFGQGTKVELK |  | 66 | 1.81 | 3.58e-06 | 0.609 | 6.9e-07
10 | 2D11 (antibody, human IgG1, V domains shown) VH: EVQLQESGPGLVKPSQTLSLTCTVSGGSITNSYYASSWIRQPPGKGLEWMGVIIYDGSTYYSPSLKSRTSISRDTSKNQFSLQLSSVTPEDTAVYYCARGLRVAGSYFTDFGTWGQGTQVTVSS VL: SYELTQSPSVSVALRQAAKITCGGDNIASKHAHWYQQKPGQSPVLVIYKDSNRPSGIPERFSGSNSGNTATLTVSGAQAEDEADYYCQVWDSSANAAVFGGGTHLTVLG |  | 71 | 37.5 | 1.26e-05 | 87.9 | 2.13e-05
11 | 4F6 (antibody, human IgG1, V domains shown) VH: QLQLVESGGGLVQPGGSLRLSCAASGFTFDDYAMSWVRQAPGKGLEWVSAISWNGGSTYYAESMKGRFTISRDNAKNTLYLQMNSLKSKDTAVYYCARRRYGLGSEYDYWGQGTQVTVSS VL: HSAVTQPSAVSVSLGQTARITCQGTNLRSSYVHWYQQMPGQAPVLVIYRDSERPSGIPERFSGSSSGGTATLAISGAQAEDEADYYCQSAHRSESAVFGGGTHLTVLG |  | 874 | 5100 | 0.00422 | 3350 | 0.00254
12 | 4E8 (antibody, human IgG1, V domains shown) VH: EVQLQESGGGLVQPGGSLRLSCAASGFTFDDYAMSWVRQAPGKGLEWVSAISWNGGSTYYAESMKGRFTISRDNAKNTLYLQMNSLKSKDTAVYYCARRRYGLGSEYDYWGQGTQVTVSS VL: NFMLTQPSAVSVSLGQTARITCQGSSFGSSYAHWYQQMPGQAPILVIYRDSERPSGIPDRFSGSNSGGTATLTISGAQAEDEADYYCQSGSSSGNAHAVFGGGTHLTVLG |  | 129 | 4280 | 0.000422 | 45200 | 0.00063
